Values quoted from earlier work as cited in PMC7221782.
pKd: −log10 of the molar value. “And” between values parts separate entries of the source, which are not always exact repeats. Equal entries are not always repeated.

Target: Gal4 (Saccharomyces cerevisiae) (UniProt P04386)

pKd: 5.07 and 4.70
Substance: Gal4 (from UniProt P04386)
